Assays:
endogenous Notch-1 = assay: γ-secretase cleavage of endogenous Notch-1 in mouse embryonic fibroblasts (NICD immunoblot); assay type: cell-based; settings: MEFs, EDTA 1.5 mM; DAPT 1 μM; n=3
Procedure: (§1) Brain homogenates were lysed in a buffer (25 mM HEPES, pH 7.5, 150 mM NaCl, 2 mM EDTA, protease inhibitor cocktail and 10% glycerol) containing 1% Nonidet P40. Immunoblotting was performed as previously described (Nishimura, M., et al. Nat Med 5, 164-169 (1999)).
Next, γ-secretase cleavage of endogenous Notch-1 in mouse embryonic fibroblasts (MEFs) was examined (FIG. 1d). Treatment of MEF with EDTA (1.5 mM) induces cleavage of TMIC (transmembrane/intracellular Notch) and generates NEXT (Notch extracellular truncation). NEXT is further cleaved by γ-secretase to release NICD (Notch intracellular domain). The NICD production was inhibited by DAPT (1 μM). β-Actin was used as a loading control. The graphs show quantified NICD signal intensities (n=3).

γ-secretase = assay: AICD production in transfected HEK293 cells treated with NEM (immunoblot); assay type: cell-based, human; settings: NEM for 60 minutes, n=3
Procedure: as §1
HEK293 cells transfected with control, ILEI siRNA, or ILEI cDNA (respectively denoted by ILEI-k/d and ILEI-oe in the figure) were treated with N-ethyl maleimide (NEM) for 60 minutes to block degradation of AICD. The AICD production was inhibited by a treatment with DAPT, which is a γ-secretase inhibitor (D in the figure). β-Actin was used as a loading control. The graphs show quantified AICD signal intensities (n=3).

ILEI-Tg mice [1] = settings: mouse, in vivo
ILEI-Tg mice [2] = assay: Immunoblotting of brain homogenates of ILEI-Tg mice (APP-CTF, NICD); assay type: in vivo, mouse; settings: 6-week-old ILEI-Tg mice versus wild-type littermates
ILEI-Tg mice [3] = assay: Aβ40 and Aβ42 in brain homogenate fractions of ILEI-Tg mice (ELISA); assay type: in vivo, mouse; settings: Tris-buffered saline-soluble and insoluble fractions, 8 months old, n=5, versus wild-type littermates
[4] = test system: stable ILEI-knockdown HEK293 cells; assay: Aβ secretion after adding purified ILEI-His to culture solution of stable ILEI-knockdown HEK293 cells; assay type: cell-based, human
Procedure: Using this cell culture solution, the measurement of secretory Aβ from the cells was performed according to ELISAs specific for human Aβ40 and Aβ42 (Wako Pure Chemical Industries).
Purified ILEI-His was added into the culture solution of stable ILEI-knockdown HEK293 cells at the indicated concentration (μg ml^−1).

C[C@H](NC(=O)Cc1cc(F)cc(F)c1)C(=O)N[C@H](C(=O)OC(C)(C)C)c1ccccc1 [DAPT, reference compound]
NICD production (Notch cleavage by γ-secretase) (endogenous Notch-1): inhibited | AICD production (γ-secretase): inhibited

B1: ILEI: interleukin-like epithelial-mesenchymal transition inducer, secretory protein, SEQ ID NO: 1 (mature: SEQ ID NO: 2) (protein, listed as Homo sapiens)
chain: MRVAGAAKLVVAVAVFLLTFYVISQVFEIKMDASLGNLFARSALDTAARSTKPPRYKCGISKACPEKHFAFKMASGAANVVGPKICLEDNVLMSGVKNNVGRGINVALANGKTGEVLDTKYFDMWGGDVAPFIEFLKAIQDGTIVLMGTYDDGATKLNDEARRLIADLGSTSITNLGFRDNWVFCGGKGIKTKSPFEQHIKNNKDTNKYEGWPEVVEMEGCIPQKQD
development, fertility and gross morphology (ILEI-Tg mice [1]): normal development and fertility without any gross morphological defect | NICD production (Notch cleavage by γ-secretase) (endogenous Notch-1): does not perturb Notch cleavage | NICD levels in the brains (ILEI-Tg mice [2]): no alteration | decrease in APP-CTF levels in the brains (ILEI-Tg mice [2]): 30% | Aβ40 level in brain homogenates (ILEI-Tg mice [3]): significantly reduced | Aβ42 level in brain homogenates (ILEI-Tg mice [3]): significantly reduced

B2: ILEI-His: purified recombinant ILEI protein from the pcDNA6/V5-His construct, added from outside the cells (protein, UniProt Q92520 25-227, looked up)
Protein FAM3C: QVFEIKMDASLGNLFARSALDTAARSTKPPRYKCGISKACPEKHFAFKMASGAANVVGPKICLEDNVLMSGVKNNVGRGINVALANGKTGEVLDTKYFDMWGGDVAPFIEFLKAIQDGTIVLMGTYDDGATKLNDEARRLIADLGSTSITNLGFRDNWVFCGGKGIKTKSPFEQHIKNNKDTNKYEGWPEVVEMEGCIPQKQD
modifications: V5-His tag
notes: purified recombinant ILEI protein from the pcDNA6/V5-His construct, added from outside the cells
Aβ secretion ([4]; at a concentration of 7 μg ml^−1): decreased to almost the same extent as in the case of introducing siRNA-resistant ILEI cDNA | Aβ secretion ([4]; purified protein added to the culture solution at the indicated concentrations (μg ml^−1)): diminished Aβ secretion in a dose-dependent manner
